From US20090054317A1 come the findings set out here.

For this assay, the target named is ANTXR2 expressed in RAW264.7 cells, Q6DFX2. The experiment in a line: cell-based or functional assay.
ANTXR2 expressed in RAW264.7 cells, Q6DFX2, sequence (Q6DFX2 32-487 limits assumed): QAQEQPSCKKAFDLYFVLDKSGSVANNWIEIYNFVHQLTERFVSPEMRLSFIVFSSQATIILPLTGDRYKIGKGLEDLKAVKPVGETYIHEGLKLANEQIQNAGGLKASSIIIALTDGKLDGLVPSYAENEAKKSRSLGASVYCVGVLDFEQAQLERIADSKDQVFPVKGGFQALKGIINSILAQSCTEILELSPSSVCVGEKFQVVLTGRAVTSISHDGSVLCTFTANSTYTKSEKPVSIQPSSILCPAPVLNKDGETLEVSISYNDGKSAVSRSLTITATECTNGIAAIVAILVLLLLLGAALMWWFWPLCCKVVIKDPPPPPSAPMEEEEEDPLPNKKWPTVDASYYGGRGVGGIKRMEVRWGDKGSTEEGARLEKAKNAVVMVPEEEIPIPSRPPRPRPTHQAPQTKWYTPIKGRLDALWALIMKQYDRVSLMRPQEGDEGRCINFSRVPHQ

B1: … (SEQ ID NO: 3)-functionalized liposomes (peptide)
peptide: AWPLSQLDHSYNC
modifications: not checked
On to B1, for which the Activity against toxin-induced cell death in RAW264.7 cells (IC50) came out at 40 nM and the enhancement in the activity of the peptide by polyvalency (against the monovalent peptide) is > 50000 fold.
